The values below come from publication PMC12676389.

For orientation: Kd means the constant that tells how readily two partners part at equilibrium. Low readings indicate tighter binding, high ones weaker binding. For orientation: stoichiometry N means a count of units in the complex or per binding partner.

Test [1] concerns the target β2-adrenergic receptor, construct PN1 (monomeric receptor) (UniProt P07550). Kind of test: BLI; as a16, monomeric β2AR with 10 μM AP. Background: BLI is a label-free optical method that tracks binding on a fibre tip over time.
Test [2] concerns the target AP-7-168-bound β2AR dimer (construct PN1) (UniProt P07550). Kind of test: SEC; AP-bound dimer with nucleotide-free Gs; peak fractions on SDS-PAGE, ratio of β2AR to Gα estimated on gels.
Test [3] deals with β2-adrenergic receptor, construct PN1 (monomeric receptor) (UniProt P07550). The test can be described thus: BLI; FLAG-tagged β2AR (monomer or AP-bound dimer) captured with 10 μM Iso on SA tips by biotinylated anti-FLAG M1 Fab; Gs 30 nM to 10 μM with 10 μM GDP and 0.1% BSA in NH buffer, 0.01% LMNG, 0.001% CHS; 30°C; KD from equilibrium responses.

In the case of “heterotrimeric Gs (Gαsβ1γ2) (from UniProt P63092 1-394; P62873 1-340; P59768 1-71) (complex)”, the Kd in test [1] came to 1700 nM; in test [3], 960 nM. In test [2], the stoichiometry N was 2 β2AR per Gα.
